Reference: the supplement of paper PMC9732359
± gives the uncertainty stated by the source.

Assay: protein stability index of a GFP-peptide fusion (yeast GPS) (PSI 1-4); higher = more stable; sorted into four equal gates, so the index is relative within each strain
Method in brief: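 Tiled 17-residue peptides from yeast proteins were fused downstream of GFP on a plasmid that also expresses Cherry, and the pooled library was carried in yeast. Mid-log cultures grown in leucine-free medium were sorted into four equal gates by GFP/Cherry fluorescence ratio. Plasmids from each gate were PCR-amplified and Illumina-sequenced, and reads were assigned to strains by barcodes. Each peptide's protein stability index is the sum, over gates, of the gate's read frequency multiplied by its gate number.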

Sequence	protein stability index (pdr5∆)	protein stability index (san1∆)	protein stability index (ubr1∆)	protein stability index (doa10∆)
ADGLLQVLVCTATLAWG [BRR2]	1.77 ± 0.28	2.17 ± 0.18	2.14 ± 0.25	
AARKAEKAKSAGVQGSK [RPL24B]	3.11 ± 0.068	3.18 ± 0.065	3.29 ± 0.042	3.27 ± 0.087
PIMQTQMPLNSNGGNNM [SNF2]	2.92 ± 0.06	2.84 ± 0.057	2.62 ± 0.045	3 ± 0.059
RQQAYKTAQTLDENLNS [YJL041W/NSP1]	2.76 ± 0.079	3.12 ± 0.067	2.8 ± 0.05	2.84 ± 0.078
GQVAIKTLVYLEKCEAE [YCS4]			2.92 ± 0.24	
YVQVRQPIFVAHTAGRY [RPS5]	1.84 ± 0.059	1.89 ± 0.11	1.74 ± 0.068	1.7 ± 0.064
NTDLKDIIQGNPLMYSG [PCI8]	3.13 ± 0.085	3.21 ± 0.11	3.2 ± 0.086	2.84 ± 0.051
RVMKSLSINEKDFVTMA [YCG1]	2.06 ± 0.052	2.1 ± 0.082	2.16 ± 0.042	2.35 ± 0.073
PPPPPPSNFEINAEEIV [PRP8]	3.04 ± 0.046	2.72 ± 0.039	2.9 ± 0.038	2.6 ± 0.038
ANATAAESDVAKQLAAL [RPL16A]	2.84 ± 0.061	3.19 ± 0.046	3.23 ± 0.05	3 ± 0.043
SAKQTAPNNSNGGSEEE [MED7]				3.45 ± 0.27
AMICEAKGLIENIFEGE [YJR042W/NUP85]	2.93 ± 0.086	2.5 ± 0.1	2.81 ± 0.064	2.94 ± 0.13
AFPKDDRSKPVALTSFL [RPL3]	2.75 ± 0.083	3.33 ± 0.054	1.95 ± 0.045	2.77 ± 0.1
DDTKETVYISSIALLKM [RPN11]	2.77 ± 0.084	2.71 ± 0.048	2.93 ± 0.055	3.09 ± 0.087
RKDTVSREVLRYEEFAD [RPC40]	3.59 ± 0.15	3.32 ± 0.082	3.3 ± 0.11	3.38 ± 0.11
SSLNLEDTPANDSSATR [RPB8]	2.85 ± 0.065	2.68 ± 0.063	3.08 ± 0.048	2.92 ± 0.067
PAKVEDVQKSSDSSSED [YLR335W/NUP2]	2.41 ± 0.097	2.4 ± 0.11	1.65 ± 0.053	2.84 ± 0.1
KTPLLKQYLSASFSLKN [RPL6A]	1.98 ± 0.054	2.25 ± 0.059	2.27 ± 0.042	2.01 ± 0.051
VTEMSNNANVLGGEIND [BRR2]	3.18 ± 0.12	3.51 ± 0.085	3.15 ± 0.064	3.18 ± 0.11
IAKFERSEEEVTKLNVL [YIL149C/MLP2]	3.46 ± 0.093	3.31 ± 0.051	3.4 ± 0.069	3.4 ± 0.13
INQKALRKIQALRDVKN [GAL11]	1.26 ± 0.25			
FNTLVRIMSTRCMMAAQ [DIS3]	1.73 ± 0.058	1.61 ± 0.076	1.58 ± 0.036	1.53 ± 0.07
VFFDDDPLYDITKVPAL [REC8]	2.92 ± 0.082	2.7 ± 0.065	2.88 ± 0.055	2.47 ± 0.063
TSVDGKKRSKVRKETYS [HTB2]	3.19 ± 0.14	3.15 ± 0.18	3.31 ± 0.067	3.04 ± 0.087
TPMTRISELPPQIRQEI [YGL172W/NUP49]	3.11 ± 0.055	2.65 ± 0.051	2.86 ± 0.043	2.84 ± 0.074

Sequence	protein stability index (pdr5∆)	protein stability index (san1∆)	protein stability index (ubr1∆)	protein stability index (doa10∆)
AHFLSLSFTPTTVIGIR [RPN2]	1.56 ± 0.041	1.28 ± 0.083	1.27 ± 0.031	1.57 ± 0.043
QTGTRRNSKLLNTKSIQ [MCD1]	3.19 ± 0.18	3.05 ± 0.085	3.2 ± 0.072	3.29 ± 0.2
IPFQTLYRSIESGEFDF [YJL039C/NUP192]	2.27 ± 0.062	2.11 ± 0.1	1.99 ± 0.032	1.95 ± 0.061
LYQIDYLGTKVELPYGA [PRE1]	1.81 ± 0.079	1.62 ± 0.099	2.23 ± 0.073	1.72 ± 0.089
GRHVATCSSDQHIKVFK [YGL100W/SEH1]	2.76 ± 0.059	2.57 ± 0.08	2.75 ± 0.052	2.71 ± 0.066
LKIQFILSTTLDPTDDE [SIN4]	2.33 ± 0.081	2.12 ± 0.067	2.81 ± 0.099	2.04 ± 0.1
RVHRRNNRWAENNYKKR [RPS23A]	3.55 ± 0.21		3.54 ± 0.1	3.26 ± 0.29
TPPVVVVGVVGYVETPR [RPL3]	2.33 ± 0.068	1.46 ± 0.072	2.86 ± 0.17	1.81 ± 0.086
GKEFGTTPEKPEETPLE [FAS2]	2.7 ± 0.076	2.6 ± 0.059	2.81 ± 0.069	2.77 ± 0.095
ILTEHLGYPPISLVDDI [MTW1]	2.17 ± 0.047	2.22 ± 0.071	2.11 ± 0.042	2.36 ± 0.054
NGCSGADVKGVCTEAGM [RPT6]	3.7 ± 0.16	3.25 ± 0.11	3.1 ± 0.11	3.15 ± 0.18
EEKPGLIITRKAFKNNS [SMC4]	2.88 ± 0.097	2.82 ± 0.064	2.94 ± 0.079	2.89 ± 0.086
EKTLGKSLSKAISTGAK [RPN7]	3.42 ± 0.12	3.53 ± 0.12	3.57 ± 0.19	2.98 ± 0.19
RHLEKEGIIKPISKHSK [RPS25A]	3.28 ± 0.093	2.96 ± 0.084	3.01 ± 0.076	3.04 ± 0.084
DDSRNPDCKIKIAHGTT [PRE2]	2.77 ± 0.067	2.72 ± 0.076	2.84 ± 0.078	2.63 ± 0.086
LFVFTEGWPKFQDTLYK [QCR10]	2.91 ± 0.22	3.08 ± 0.12		3.21 ± 0.19
ETPEGQACGLVKNLSLM [RPB2]	2.25 ± 0.12	3.01 ± 0.11	3.03 ± 0.13	1.67 ± 0.13
VHVQLLINLKISPLMKS [SRB8]	1.59 ± 0.048	1.55 ± 0.091	1.44 ± 0.05	1.44 ± 0.058
KSIINSQRPGARILARS [ITC1]	2.18 ± 0.16	2.45 ± 0.22	2.63 ± 0.11	
QSTQTDLEKTERIVVSY [SMC2]	2.94 ± 0.065	2.56 ± 0.058	2.69 ± 0.044	2.98 ± 0.052
DGKLIDISGTMSGGGNH [SMC4]	3.4 ± 0.11	3.54 ± 0.075	3.6 ± 0.088	3.42 ± 0.11
SLNLQYVNYEISTAKAW [YML103C/NUP188]	2.93 ± 0.082	2.55 ± 0.074	2.69 ± 0.058	2.6 ± 0.055
LPNQIPGEYITTIKAIF [YMR129W/POM152]	2.51 ± 0.055	2.78 ± 0.053	3.11 ± 0.041	2.37 ± 0.055
EPIEESSQNNSELAPIE [IRR1]	2.9 ± 0.13	2.73 ± 0.26	2.73 ± 0.095	2.89 ± 0.2
SGGEREIQRTMLELLNQ [RPT2]	3.74 ± 0.2		3.15 ± 0.18	3.46 ± 0.15

Sequence	protein stability index (pdr5∆)	protein stability index (san1∆)	protein stability index (ubr1∆)	protein stability index (doa10∆)
VSTAKFSGKYLKYLTKK [RPL22A]	3.29 ± 0.11	3.41 ± 0.2	3.26 ± 0.12	3.17 ± 0.12
WGEQKKAMSSRAGVSQV [RPB2]	3.17 ± 0.099	3.25 ± 0.071	3.32 ± 0.05	3.27 ± 0.12
EDTNTKPLFDFGKTGDQ [YOR098C/NUP1]				1.86 ± 0.25
LNLQFKAKVDDLVLGKP [YLR335W/NUP2]	3.39 ± 0.18	3.34 ± 0.067	3.3 ± 0.078	2.85 ± 0.11
YKEIRDVSRVAAVETLY [RPL20A]	2.19 ± 0.081	1.75 ± 0.17	1.64 ± 0.069	1.95 ± 0.067
TSFDRTKKTITPMGGFV [RPL3]	3.03 ± 0.12	2.79 ± 0.089	3.21 ± 0.24	3.04 ± 0.12
SFLHVDDKLAYIRVNHA [POP8]	2.29 ± 0.068	2.21 ± 0.11	2.56 ± 0.061	2.67 ± 0.08
APIPKQLLQRIPNIPPN [GAL11]	2.63 ± 0.066	2.6 ± 0.07	2.54 ± 0.049	2.69 ± 0.063
KIKAILESVGIEIEDEK [RPP2A]	3.3 ± 0.11	2.8 ± 0.11	2.99 ± 0.13	2.75 ± 0.084
KKSQCKKKTTLEDFENF [YIL149C/MLP2]	3.04 ± 0.051	3.08 ± 0.04	3.14 ± 0.048	2.87 ± 0.053
NALTVGDFDKFDSLIKV [RPN9]	1.59 ± 0.11	1.3 ± 0.14	1.3 ± 0.11	2.14 ± 0.13
IVNVNFMKSVIRSREAF [DIS3]	2.77 ± 0.062	2.2 ± 0.098	2.31 ± 0.04	2.75 ± 0.065
ESQYPIVTEQPSAEIRE [SWP82]	2.73 ± 0.042	2.57 ± 0.047	2.56 ± 0.039	2.56 ± 0.04
DSLTRAVKDQQKYTKEM [SNF2]	1.8 ± 0.11	1.25 ± 0.15		1.47 ± 0.19
LTCSLYELYINKLTILG [IRR1]	1.36 ± 0.04	1.34 ± 0.059	1.48 ± 0.045	1.36 ± 0.032
PEIPLVVSTDLESIQKT [RPL4A]	3.05 ± 0.086	3.16 ± 0.052	2.81 ± 0.062	2.96 ± 0.071
PRFNRDNKVSPAAAAKK [RPS26B]	2.5 ± 0.21	2.61 ± 0.11	2.76 ± 0.12	2.41 ± 0.12
SEIWDVSRGQSAVLLET [PRP8]	2.65 ± 0.15	3.12 ± 0.26	2.04 ± 0.091	2.83 ± 0.16
RQLTSMEFSNLYKEFFN [NUT1]	2.59 ± 0.068	2.85 ± 0.089	2.25 ± 0.067	2.48 ± 0.079
DPQHKAIRRDARYNWIC [RPL15A]	3.31 ± 0.12	2.92 ± 0.16	3.11 ± 0.16	2.86 ± 0.088
DVIAWKNVLANSIWGSS [ITC1]	2.95 ± 0.088	3.49 ± 0.12	3.28 ± 0.072	2.83 ± 0.14
KSKFNKSNRSYSIALSN [GAL11]	2.47 ± 0.13	3.1 ± 0.12	2.81 ± 0.064	2.85 ± 0.075
MYILGMCVSKGNASLKY [YCG1]	2.42 ± 0.12	1.58 ± 0.11	2.17 ± 0.091	1.79 ± 0.083
LSAEYLVILKPDLNIDR [SIN4]	3.1 ± 0.1	2.97 ± 0.058	2.94 ± 0.045	2.97 ± 0.063
NIMSASGGLFGNQQQQL [YGL172W/NUP49]	3.12 ± 0.086	3.29 ± 0.1	3.2 ± 0.042	3.25 ± 0.067
